Assay results published in US20240218079A1, “PLASMA KALLIKREIN ANTIBODIES AND USES THEREOF” (Astria Therapeutics, Inc., priority 2021, published 2024).

Experiments:
[1] = molecular target: human plasma kallikrein (human) (UniProt P03952)
[2] = molecular target: human plasma kallikrein (human) (UniProt P03952); remark: listed apart in the source

human plasma kallikrein (human), sequence (P03952 20-390 S143N limits assumed, chain 1 of 2): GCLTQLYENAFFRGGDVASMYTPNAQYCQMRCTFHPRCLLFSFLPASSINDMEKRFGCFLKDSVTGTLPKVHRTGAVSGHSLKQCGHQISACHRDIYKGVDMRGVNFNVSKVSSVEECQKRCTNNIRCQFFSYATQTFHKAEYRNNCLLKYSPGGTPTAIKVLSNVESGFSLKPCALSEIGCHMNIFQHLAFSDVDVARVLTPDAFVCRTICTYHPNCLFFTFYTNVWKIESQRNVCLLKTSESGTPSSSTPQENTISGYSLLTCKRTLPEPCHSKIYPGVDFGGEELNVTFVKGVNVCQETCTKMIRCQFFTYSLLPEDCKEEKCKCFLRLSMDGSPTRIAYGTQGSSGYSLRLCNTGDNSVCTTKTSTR
human plasma kallikrein (human), sequence (P03952 391-638 limits assumed, chain 2 of 2): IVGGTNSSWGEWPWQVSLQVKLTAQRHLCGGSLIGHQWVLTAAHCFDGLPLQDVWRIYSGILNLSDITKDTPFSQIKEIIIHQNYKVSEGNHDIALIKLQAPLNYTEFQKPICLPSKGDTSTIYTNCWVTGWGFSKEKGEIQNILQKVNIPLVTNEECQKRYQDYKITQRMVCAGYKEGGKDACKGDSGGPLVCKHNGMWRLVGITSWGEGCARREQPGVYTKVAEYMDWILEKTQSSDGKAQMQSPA

B1: C1inh (protein, UniProt P05155 23-500, looked up, species assumed)
Plasma protease C1 inhibitor: NPNATSSSSQDPESLQDRGEGKVATTVISKMLFVEPILEVSSLPTTNSTTNSATKITANTTDEPTTQPTTEPTTQPTIQPTQPTTQLPTDSPTQPTTGSFCPGPVTLCSDLESHSTEAVLGDALVDFSLKLYHAFSAMKKVETNMAFSPFSIASLLTQVLLGAGENTKTNLESILSYPKDFTCVHQALKGFTTKGVTSVSQIFHSPDLAIRDTFVNASRTLYSSSPRVLSNNSDANLELINTWVAKNTNNKISRLLDSLPSDTRLVLLNAIYLSAKWKTTFDPKKTRMEPFHFKNSVIKVPMMNSKKYPVAHFIDQTLKAKVGQLQLSHNLSLVILVPQNLKHRLEDMEQALSPSVFKAIMEKLEMSKFQPTLLTLPRIKVTTSQDMLSIMEKLEFFDFSYDLNLCGLTEDPDLQVSAMQHQTVLELTETGVEAAAASAISVARTLLVFEVQQPFLFVLWDQQHKFPVFMGRVYDPRA
B1 gave an IC50 (read off the curve), lower panel, 10 nM pKal [1] of 1e-08 M, an IC50 (read off the curve), upper panel, 1 nM pKal [1] of 4e-09 M and an IC50 (read off the curve) [2] of 3 nM.
